# Experimental data: US5622828, “High-affinity oligonucleotide ligands to secretory phospholipase A2 (sPLA2)” (Nexstar Pharmaceuticals, Inc.)
# Residue numbers refer to the chain shown, from its start.
# B1: 11t (ssRNA)
# RNA: GGGAGCUCAGAAUAAACGCUCAACUUACGGGUAAAGCCGAGAAAAUGUAUUGCUUCGACAUGAGGCCCGGAUCCGGC
# B2: 2 (ssRNA)
# RNA: GGGAGCUCAGAAUAAACGCUCAAUCUCAUUGCUCGUCGCACGGCGUAACCUAUUUCGACAUGAGGCCCGGAUCCGGC
# B3: 4 (ssRNA)
# RNA: GGGAGCUCAGAAUAAACGCUCAAUGUCUUACGGGUAAAGCCGAGAAAGUUUCCUUCGACAUGAGGCCCGGAUCCGGC
# B4: 89 (ssRNA)
# RNA: B3 RNA with U24A
# B5: 35t (ssRNA)
# RNA: GGGAGCUCAGAAUAAACGCUCAAGGCUGGGUCUUUUACAGGUAAAGCUGAGAAUUCGACAUGAGGCCCGGAUCCGGC
# B6: 72t.2c (ssRNA)
# RNA: GGGAUAAACGCUCAACUUACAGUUCGGCUGAGACGAAGAUCGACCUUCGACAU
# B7: 3 (ssRNA)
# RNA: GGGAGCUCAGAAUAAACGCUCAAAGCUCAUCGUCUCGCAAGGCGUAUCCUAUUUCGACAUGAGGCCCGGAUCCGGC
# B8: NN18 (ssRNA)
# RNA: GGGAAAAGCGAAUCAUACACAAGAGGAUGGCGGCAAGGCGCGAAAGGGAGGAUCGAGGAGGAAUCGCGUCAGGAGCUCCGCCAGAGACCAACCGAGAA
# modifications: 2'-NH2 all C and U
# B9: 87.3 (ssRNA)
# RNA: GGGAGCUCAGAAUAAACGCUCAAGCUCUGGGAUGAUGCCCACUGUCCAGCAUCUUCGACAUG
# B10: 80 (ssRNA)
# RNA: GGGAGCUCAGAAUAAACGCUCAAGCUCUGGGAUGAUGCCCAGUGUCCAGCAUCUUCGACAUGAGGCCCGGAUCCGGC
# B11: 87F (ssRNA)
# RNA: B10 RNA with G42C
# modifications: 2'-F all C and U
# B12: 87 (ssRNA)
# RNA: B10 RNA with G42C
# B13: 87.4 (ssRNA)
# RNA: GGAGCUCAGAAUAAACGCUCAAGCUCUGGGAUGAUGCCCACUGUCCAGCAUCUUCGACAUG
# B14: 73t (ssRNA)
# RNA: GGGAGCUCAGAAUAAACGCUCAACUUACAGUUCGGCUGAGAGAAGACGCAUACUUCGACAUGAGGCCCGGAUCCGGC
# B15: 9t (ssRNA)
# RNA: GGGAGCUCAGAAUAAACGCUCAACACGGGGGUGGGUGGGUGGCCGAGCGCUUGUUCGACAUGAGGCCCGGAUCCGGC
# B16: 96 (ssRNA)
# RNA: GGGAGCUCAGAAUAAACGCUCAAGACCUCUGCUUACAGUUCGGCUGAGACACUUCGACAUGAGGCCCGGAUCCGGC
# B17: 79 (ssRNA)
# RNA: B16 RNA with U39C
# B18: 71 (ssRNA)
# RNA: GGGAGCUCAGAAUAAACGCUCAAUCUCAUGCUCGUCGCACGGCGUAACCUAUUUCGACAUGAGGCCCGGAUCCGGC
# B19: NN39 (ssRNA)
# RNA: GGGAAAAGCGAAUCAUACACAAGACUGGUUGUGCGGACCCAGUGAGUGGGAGGACGUGAGGGUGGCAGCUGGGCUCCGCCAGAGACCAACCGAGAA
# modifications: 2'-NH2 all C and U
# B20: 6t (ssRNA)
# RNA: GGGAGCUCAGAAUAAACGCUCAAUGCCUCAUGCCAAUGUGGGAGGGUGGGUGGUUCGACAUGAGGCCCGGAUCCGGC
# B21: 86t (ssRNA)
# RNA: B20 RNA with U24C, U39C
# B22: 83t (ssRNA)
# RNA: B20 RNA with U24C, U37C, G45C
# How the values were obtained:
# [1] = biological target: T1, secretory phospholipase A2 (sPLA2) (Homo sapiens, UniProt P14555 P14555:21-144); assay: filter; biphasic, Kd2 110 nM, mole fraction 0.40; TBSC, 37 C; conditions: tags: supplied by Eli Lilly
# T1 sequence: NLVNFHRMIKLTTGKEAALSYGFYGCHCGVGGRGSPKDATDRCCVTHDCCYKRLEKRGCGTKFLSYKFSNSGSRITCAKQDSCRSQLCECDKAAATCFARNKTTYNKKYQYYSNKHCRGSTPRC
# Description: (§1) The nitrocellulose filter partitioning method was used as described in SELEX Patent Applications to determine the affinity of RNA ligands for sPLA_2 and for other promins. Filter discs (nitrocellulose/cellulose acetate mixed matrix, 0.45 µm pore size, Millipore) were placed on a vacuum manifold and washed with 5 ml of TBSC buffer under vacuum. Reaction mixtures, containing ^32P labeled RNA pools and sPLA_2, were incubated in TBSC for 5 minutes at 37° C., filtered, and then immediately washed with 5 ml TBSC. The filters were air-dried and counted in a Beckman liquid scintillation counter without fluor.
# (§2) The dissociation constants for representative members of families I–VI, orphan and other ligands were determined by nitrocellulose filter binding experiments and are listed in Table III. Unlike random RNA, all tested ligands from the 2'OH SELEXes bound biphasically.
# [2] = biological target: basic fibroblast growth factor (bFGF) (Homo sapiens, UniProt P09038 P09038:143-288); assay: filter; specificity control, like random RNA; TBSC
# Chain of basic fibroblast growth factor (bFGF) (P09038 143-288, one chain of several): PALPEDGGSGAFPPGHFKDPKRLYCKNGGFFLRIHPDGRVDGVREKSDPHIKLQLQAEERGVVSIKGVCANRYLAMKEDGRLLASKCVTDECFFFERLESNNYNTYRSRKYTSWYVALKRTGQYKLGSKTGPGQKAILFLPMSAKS
# Description: (§3) The affinity of sPLA_2 ligands 2, 72, 80, 87, NN19 and NN19.15 (SEQ ID NOs.:11, 20, 53, 54, 64, and 117, respectively) for proteins other than sPLA_2 was determined by nitrocellulose partitioning (Tables IV and V). Like sPLA_2, hen egg white lysozyme, bFGF and elastase are small, highly cationic proteins. Bovine pancreatic PLA_2 is an evolutionarily and structurally related enzyme. […] Specificity is particularly well illustrated by the affinities for bovine pancreatic PLA_2 which is 10^4-fold less than that for human sPLA_2.
# (§4) *Standard binding experiments were performed to the specified target protein in TBSC and K_d's is calculated by curve fitting. The ligands bind no better than randomized RNA (30N1) to lysozyme (hen egg-white), human basic fibroblast growth factor basic (bFGF) and bovine pancreatic PLA₂. The sPLA₂ K_d that of the high affinity species.
# [3] = biological target: lysozyme (egg white) (Gallus gallus, UniProt P00698 P00698:19-147); assay: filter; specificity control, like random RNA; TBSC; conditions: tags: 6x crystallized
# Chain of lysozyme (egg white) (P00698 19-147, one chain of several): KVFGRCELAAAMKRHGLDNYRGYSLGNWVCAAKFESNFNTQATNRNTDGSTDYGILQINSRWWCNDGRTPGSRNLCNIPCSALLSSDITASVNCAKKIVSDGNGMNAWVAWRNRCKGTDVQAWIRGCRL
# Description: as §3, §4
# [4] = biological target: pancreatic phospholipase A2 (bpPLA2) (Bos taurus, UniProt P00593 P00593:23-145); assay: filter; specificity control, like random RNA; TBSC
# Chain of pancreatic phospholipase A2 (bpPLA2) (P00593 23-145, one chain of several): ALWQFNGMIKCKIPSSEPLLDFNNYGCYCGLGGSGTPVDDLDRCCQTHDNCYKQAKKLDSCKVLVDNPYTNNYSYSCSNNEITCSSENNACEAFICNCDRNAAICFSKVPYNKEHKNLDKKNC
# Description: as §3, §4
# [5] = biological target: T1, secretory phospholipase A2 (sPLA2); assay: filter; biphasic, Kd2 180 nM, mole fraction 0.45; TBSC, 37 C; conditions: tags: supplied by Eli Lilly
# Description: as §1, §2
# [6] = biological target: T1, secretory phospholipase A2 (sPLA2); assay: filter; biphasic, Kd2 740 nM, mole fraction 0.55; TBSC, 37 C; conditions: tags: supplied by Eli Lilly
# Description: as §1, §2
# [7] = biological target: T1, secretory phospholipase A2 (sPLA2); assay: filter; biphasic, Kd2 300 nM, mole fraction 0.55; TBSC, 37 C; conditions: tags: supplied by Eli Lilly
# Description: as §1, §2
# [8] = biological target: T1, secretory phospholipase A2 (sPLA2); assay: filter; biphasic, Kd2 62 nM, mole fraction 0.50; TBSC, 37 C; conditions: tags: supplied by Eli Lilly
# Description: as §1, §2
# [9] = biological target: T1, secretory phospholipase A2 (sPLA2); assay: filter; biphasic, Kd2 170 nM, mole fraction 0.65; TBSC, 37 C; conditions: tags: supplied by Eli Lilly
# Description: as §1, §2
# [10] = biological target: T1, secretory phospholipase A2 (sPLA2); assay: filter; biphasic, Kd2 360 nM, mole fraction 0.40; TBSC, 37 C; conditions: tags: supplied by Eli Lilly
# Description: as §1, §2
# [11] = biological target: T1, secretory phospholipase A2 (sPLA2); assay: filter; biphasic, Kd2 33 nM, mole fraction 0.55; TBSC, 37 C; conditions: tags: supplied by Eli Lilly
# Description: as §1, §2
# [12] = biological target: T1, secretory phospholipase A2 (sPLA2); assay: filter; like random pool; TBSC, 37 C; conditions: tags: supplied by Eli Lilly
# Description: as §1, §2
# [13] = biological target: T1, secretory phospholipase A2 (sPLA2); assay: filter; biphasic, Kd2 720 nM, mole fraction 0.40; TBSC, 37 C; conditions: tags: supplied by Eli Lilly
# Description: as §1, §2
# [14] = biological target: T1, secretory phospholipase A2 (sPLA2); assay: filter; biphasic, Kd2 300 nM, mole fraction 0.40; TBSC, 37 C; conditions: tags: supplied by Eli Lilly
# Description: as §1, §2
# [15] = biological target: T1, secretory phospholipase A2 (sPLA2); assay: filter; biphasic, Kd2 840 nM, mole fraction 0.50; TBSC, 37 C; conditions: tags: supplied by Eli Lilly
# Description: as §1, §2
# [16] = biological target: T1, secretory phospholipase A2 (sPLA2); assay: filter; biphasic, Kd2 450 nM, mole fraction 0.50; TBSC, 37 C; conditions: tags: supplied by Eli Lilly
# Description: as §1, §2
# [17] = biological target: T1, secretory phospholipase A2 (sPLA2); assay: filter; only low-affinity Kd2 listed; 5' G removed; TBSC, 37 C; conditions: tags: supplied by Eli Lilly
# [18] = biological target: T1, secretory phospholipase A2 (sPLA2); assay: filter; biphasic, Kd2 530 nM, mole fraction 0.40; TBSC, 37 C; conditions: tags: supplied by Eli Lilly
# Description: as §1, §2
# [19] = biological target: T1, secretory phospholipase A2 (sPLA2); assay: filter; biphasic, Kd2 170 nM, mole fraction 0.15; Table III prints SEQ 104, name matches SEQ 105; TBSC, 37 C; conditions: tags: supplied by Eli Lilly
# Description: as §1, §2
# [20] = biological target: T1, secretory phospholipase A2 (sPLA2); assay: filter; biphasic, Kd2 310 nM, mole fraction 0.25; TBSC, 37 C; conditions: tags: supplied by Eli Lilly
# Description: as §1, §2
# [21] = biological target: T1, secretory phospholipase A2 (sPLA2); assay: filter; biphasic, Kd2 130 nM, mole fraction 0.40; TBSC, 37 C; conditions: tags: supplied by Eli Lilly
# Description: as §1, §2
# [22] = biological target: T1, secretory phospholipase A2 (sPLA2); assay: filter; biphasic, Kd2 52 nM, mole fraction 0.35; TBSC, 37 C; conditions: tags: supplied by Eli Lilly
# Description: as §1, §2
# [23] = biological target: T1, secretory phospholipase A2 (sPLA2); assay: filter; biphasic, Kd2 82 nM, mole fraction 0.60; TBSC with 5 mM CaCl2, 37 C; conditions: tags: supplied by Eli Lilly
# Description: as §1, §2
# [24] = biological target: T1, secretory phospholipase A2 (sPLA2); assay: filter; biphasic, Kd2 1830 nM, mole fraction 0.50; TBSC, 37 C; conditions: tags: supplied by Eli Lilly
# Description: as §1, §2
# [25] = biological target: T1, secretory phospholipase A2 (sPLA2); assay: filter; biphasic, Kd2 450 nM, mole fraction 0.35; TBSC, 37 C; conditions: tags: supplied by Eli Lilly
# Description: as §1, §2
# [26] = biological target: T1, secretory phospholipase A2 (sPLA2); assay: filter; biphasic, Kd2 170 nM, mole fraction 0.30; TBSC, 37 C; conditions: tags: supplied by Eli Lilly
# Description: as §1, §2
binder,measurement,setting,value
B1,Kd,[1],0.6 nM
B2,Kd,[2],230 nM
same,Kd,[3],1700 nM
same,Kd,[4],20000 nM
same,Kd,[5],1.7 nM
GGUCUCAUUGCUCGUCGCACGGCGUAACCUAUUUCGACAUGAG (ssRNA) [2.3],Kd,[6],2.6 nM
B3,Kd,[7],0.7 nM
B4,Kd,[8],2.5 nM
B5,Kd,[9],2.4 nM
B6,Kd,[10],5 nM
B7,Kd,[11],1.9 nM
B8,Kd,[12],71 nM
B9,Kd,[13],0.8 nM
B10,Kd,[2],240 nM
same,Kd,[3],2700 nM
same,Kd,[4],29000 nM
same,Kd,[14],1.6 nM
B11,Kd,[15],1.2 nM
B12,Kd,[2],220 nM
same,Kd,[3],2300 nM
same,Kd,[4],20000 nM
same,Kd,[16],0.8 nM
B13,Kd,[17],4350 nM
B14,Kd,[18],2.4 nM
GGGAAGACCUCUGCUUACAGCCCGGCUGAGACACUUCGACAUGAGGCC (ssRNA) [72.c],Kd,[19],4.6 nM
B15,Kd,[20],39.4 nM
B16,Kd,[21],0.9 nM
B17,Kd,[22],1.7 nM
B18,Kd,[23],1.3 nM
B19,Kd,[12],52 nM
B20,Kd,[24],28 nM
B21,Kd,[25],2.8 nM
B22,Kd,[26],10.5 nM
